{
  "source": "patent US20120027677A1",
  "target": "PrP^Sc, pathogenic form of the human prion protein (from CJD brain homogenate) (human) (UniProt P04156)",
  "data": [
    {"substance": "3F4 antibody", "values": [
      {"measurement": "ave (RLU), vCJD BH", "result": 56.3, "unit": "RLU"}
    ]}
  ]
}
